This assay concerns the target T1, CD94 monomeric Fc fusion protein (human, UniProt P0DOX5 223-449 = IgG part).
T1 construct: also called huFc(hole)-CD94-ECD and huFc(knob); human CD94 monomeric Fc fusion protein antigen
Put plainly: phage display panning on coated CD94 monomeric Fc fusion protein, then ELISA. How it is done: Briefly, immunotubes were coated with 10 μg/ml of the antigene CD94 monomeric Fc fusion protein prepared above, blocked with phosphate buffered saline (MPBS) comprising 3% […] for 2 hours at room temperature. In order to screen for antibodies that specifically bind to CD94, the phage library was added to the immunotubes coated with the antigen CD94 monomeric Fc fusion protein and bound for 1.5 hours. The non-specific phages were then washed away, and the bound phages were eluted with 100 mM triethylamine and infected E. coli TG1 in logarithmic growth phase. Expanded culture of the eluted phages, and the expanded phage library was purified using PEG/NaCl precipitation for the next round of screening.
A total of three rounds of screening were performed, and 9 positive clones that specifically bind to CD94 were obtained after three rounds of screening. These clones were subsequently subjected to ELISA and sequencing analysis, two unique sequences were selected, 2B1 and 2F1, respectively. The ELISA results are shown in FIG. 2 (NA is the blank control group).

B1: 2B1 (Fab, V domains shown)
VH: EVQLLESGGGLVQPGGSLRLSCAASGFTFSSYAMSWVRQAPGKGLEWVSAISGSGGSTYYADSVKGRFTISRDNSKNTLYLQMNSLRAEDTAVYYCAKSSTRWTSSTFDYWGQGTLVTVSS
VL: DIQMTQSPSTLSASVGDRVTITCRASQSISSWLAWYQQKPGKAPKLLIYDASSLESGVPSRFSGSGSGTEFTLTISSLQPDDFATYYCQQYYFYPYTFGQGTKVEIKR
notes: Clone from a fully human Fab phage display library; also called antibody 2B1; CD94-specific antibody
B1: the binding result is given as “binds”.

The record behind these values is patent US20240131065A1 (CRAGE MEDICAL, published 2024).
